Key:
Assay in all cases: holdup assay
Design in all cases: key: below the threshold = too weak to quantify, mostly under pKd 3.1 to 4
DLG4_2, P78352 = biological target: DLG4_2, P78352
DLG4_3, P78352 = biological target: DLG4_3, P78352
DLG5_1, Q8TDM6 = biological target: DLG5_1, Q8TDM6
FRMPD2_1, Q68DX3 = biological target: FRMPD2_1, Q68DX3
FRMPD2_2, Q68DX3 = biological target: FRMPD2_2, Q68DX3
GRID2IP_1, A4D2P6 = biological target: GRID2IP_1, A4D2P6
GRID2IP_2, A4D2P6 = biological target: GRID2IP_2, A4D2P6
GRIP1_5, Q9Y3R0 = biological target: T1, GRIP1_5, Q9Y3R0
T1 sequence (Q9Y3R0 568-668, limits assumed, looked up): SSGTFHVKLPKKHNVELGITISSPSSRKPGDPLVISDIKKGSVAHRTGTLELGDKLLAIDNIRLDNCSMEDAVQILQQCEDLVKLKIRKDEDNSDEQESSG

IL16_1, Q14005 = biological target: IL16_1, Q14005
LDB3, O75112 = biological target: LDB3, O75112
LNX2_2, Q8N448 = biological target: T2, LNX2_2, Q8N448
T2 sequence (Q8N448 334-432, limits assumed, looked up): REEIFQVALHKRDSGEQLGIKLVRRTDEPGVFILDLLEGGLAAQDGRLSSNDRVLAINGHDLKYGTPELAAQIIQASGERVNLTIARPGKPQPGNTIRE

MAGI2_2, Q86UL8 = biological target: MAGI2_2, Q86UL8
MAGI2_3, Q86UL8 = biological target: MAGI2_3, Q86UL8
MAGI2_5, Q86UL8 = biological target: MAGI2_5, Q86UL8
MAGI3_2, Q5TCQ9 = biological target: MAGI3_2, Q5TCQ9
MPDZ_12, O75970 = biological target: T3, MPDZ_12, O75970
T3 sequence (O75970 1857-1958, limits assumed, looked up): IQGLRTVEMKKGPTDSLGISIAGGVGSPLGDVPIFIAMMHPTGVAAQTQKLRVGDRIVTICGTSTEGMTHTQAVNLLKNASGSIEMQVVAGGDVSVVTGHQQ

NHERF3_4, Q5T2W1 = biological target: T4, NHERF3_4, Q5T2W1
T4 sequence (Q5T2W1 373-468, limits assumed, looked up): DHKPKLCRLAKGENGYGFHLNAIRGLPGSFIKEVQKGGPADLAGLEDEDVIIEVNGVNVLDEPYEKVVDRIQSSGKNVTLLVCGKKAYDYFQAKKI

NOS1, P29475 = biological target: NOS1, P29475
PARD3_3, Q8TEW0 = biological target: PARD3_3, Q8TEW0
PDZRN3_1, Q9UPQ7 = biological target: T5, PDZRN3_1, Q9UPQ7
T5 sequence (Q9UPQ7 244-349, limits assumed, looked up): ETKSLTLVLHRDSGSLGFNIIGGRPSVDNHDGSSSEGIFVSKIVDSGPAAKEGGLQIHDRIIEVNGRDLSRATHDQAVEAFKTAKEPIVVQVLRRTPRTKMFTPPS

SCRIB_2, Q14160 = biological target: SCRIB_2, Q14160
SNTG1, Q9NSN8 = biological target: T6, SNTG1, Q9NSN8
T6 sequence (Q9NSN8 52-150, limits assumed, looked up): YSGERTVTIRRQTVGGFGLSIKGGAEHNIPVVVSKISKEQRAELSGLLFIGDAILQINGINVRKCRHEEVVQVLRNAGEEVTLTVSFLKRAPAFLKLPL

SNTG2, Q9NY99 = biological target: T7, SNTG2, Q9NY99
T7 sequence (Q9NY99 68-166, limits assumed, looked up): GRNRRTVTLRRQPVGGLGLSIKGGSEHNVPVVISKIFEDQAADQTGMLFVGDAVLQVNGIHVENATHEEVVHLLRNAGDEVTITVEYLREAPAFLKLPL

SNX27, Q96L92 = biological target: SNX27, Q96L92
SYNJ2BP, P57105 = biological target: T8, SYNJ2BP, P57105
T8 sequence (P57105 8-110, limits assumed, looked up): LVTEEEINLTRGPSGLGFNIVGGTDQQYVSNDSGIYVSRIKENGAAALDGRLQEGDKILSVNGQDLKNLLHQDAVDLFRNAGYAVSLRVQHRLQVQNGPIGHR

TIAM2, Q8IVF5 = biological target: T9, TIAM2, Q8IVF5
T9 sequence (Q8IVF5 885-986, limits assumed, looked up): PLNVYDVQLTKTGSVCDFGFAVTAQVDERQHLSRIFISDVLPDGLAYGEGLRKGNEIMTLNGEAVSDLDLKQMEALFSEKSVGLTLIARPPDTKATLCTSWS

TJP1_2, Q07157 = biological target: TJP1_2, Q07157
TX1BP3, O14907 = biological target: T10, TX1BP3, O14907
T10 sequence (O14907 10-122, limits assumed, looked up): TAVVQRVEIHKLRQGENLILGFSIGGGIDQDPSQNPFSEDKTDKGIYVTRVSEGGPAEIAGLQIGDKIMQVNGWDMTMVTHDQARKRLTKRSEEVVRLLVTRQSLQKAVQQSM

[1] = plain residues with an end cap or a label only (N-terminal biotin on a linker: ahx)
[2] = plain residues with an end cap or a label only (N-terminal biotin on a linker: ttds)

DLG5_1, Q8TDM6, sequence (Q8TDM6 617-713): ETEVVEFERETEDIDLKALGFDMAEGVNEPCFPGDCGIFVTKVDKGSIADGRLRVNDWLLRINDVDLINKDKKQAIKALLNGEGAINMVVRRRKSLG
PARD3_3, Q8TEW0, sequence (Q8TEW0 582-685): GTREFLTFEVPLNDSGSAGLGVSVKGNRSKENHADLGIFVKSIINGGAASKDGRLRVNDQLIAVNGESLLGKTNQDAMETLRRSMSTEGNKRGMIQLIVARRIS
IL16_1, Q14005, sequence (Q14005 210-306): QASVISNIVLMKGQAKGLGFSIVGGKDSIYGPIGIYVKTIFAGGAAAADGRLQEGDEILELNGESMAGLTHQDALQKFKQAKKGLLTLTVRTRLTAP
MAGI2_2, Q86UL8, sequence (Q86UL8 410-522): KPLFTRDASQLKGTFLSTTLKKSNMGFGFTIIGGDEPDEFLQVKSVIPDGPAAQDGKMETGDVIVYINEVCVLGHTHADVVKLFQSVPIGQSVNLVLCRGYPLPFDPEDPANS
DLG4_2, P78352, sequence (P78352 155-259): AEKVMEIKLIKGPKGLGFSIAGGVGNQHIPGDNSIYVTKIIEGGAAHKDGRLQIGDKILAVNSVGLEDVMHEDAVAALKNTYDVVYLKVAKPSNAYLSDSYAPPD
GRID2IP_2, A4D2P6, sequence (A4D2P6 272-370): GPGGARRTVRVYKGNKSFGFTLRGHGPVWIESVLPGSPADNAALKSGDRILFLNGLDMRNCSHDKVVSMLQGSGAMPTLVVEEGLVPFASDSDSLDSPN
DLG4_3, P78352, sequence (P78352 306-403): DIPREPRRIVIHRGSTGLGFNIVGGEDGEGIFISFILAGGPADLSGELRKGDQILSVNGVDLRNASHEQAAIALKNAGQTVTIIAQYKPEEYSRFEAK
NOS1, P29475, sequence (P29475 9-101): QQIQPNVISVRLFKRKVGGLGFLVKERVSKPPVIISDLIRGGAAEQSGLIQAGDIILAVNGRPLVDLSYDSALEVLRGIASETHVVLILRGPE
MAGI2_5, Q86UL8, sequence (Q86UL8 915-1017): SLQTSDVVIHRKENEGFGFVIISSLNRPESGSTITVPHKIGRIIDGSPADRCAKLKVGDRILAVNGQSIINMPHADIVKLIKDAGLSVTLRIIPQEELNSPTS
FRMPD2_2, Q68DX3, sequence (Q68DX3 944-1038): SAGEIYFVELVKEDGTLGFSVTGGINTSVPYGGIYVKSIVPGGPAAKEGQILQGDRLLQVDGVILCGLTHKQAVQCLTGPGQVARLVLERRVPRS
GRID2IP_1, A4D2P6, sequence (A4D2P6 1-87): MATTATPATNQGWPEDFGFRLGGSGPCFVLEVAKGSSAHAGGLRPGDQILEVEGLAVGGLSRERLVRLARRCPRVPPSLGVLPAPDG
LDB3, O75112, sequence (O75112 1-94): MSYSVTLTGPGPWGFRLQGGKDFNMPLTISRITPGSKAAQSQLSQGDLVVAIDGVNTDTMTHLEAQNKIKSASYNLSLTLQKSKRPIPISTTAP
TJP1_2, Q07157, sequence (Q07157 181-274): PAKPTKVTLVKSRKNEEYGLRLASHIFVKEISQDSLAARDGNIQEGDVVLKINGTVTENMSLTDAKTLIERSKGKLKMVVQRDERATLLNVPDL
SCRIB_2, Q14160, sequence (Q14160 857-960): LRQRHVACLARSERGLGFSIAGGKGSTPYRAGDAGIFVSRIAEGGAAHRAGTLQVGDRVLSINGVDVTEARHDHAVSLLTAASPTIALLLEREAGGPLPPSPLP
MAGI2_3, Q86UL8, sequence (Q86UL8 600-682): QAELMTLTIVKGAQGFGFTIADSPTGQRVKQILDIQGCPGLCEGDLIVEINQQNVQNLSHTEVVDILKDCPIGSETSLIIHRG
FRMPD2_1, Q68DX3, sequence (Q68DX3 770-861): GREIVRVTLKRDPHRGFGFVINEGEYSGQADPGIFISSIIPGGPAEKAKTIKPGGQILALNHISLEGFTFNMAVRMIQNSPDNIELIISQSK
MAGI3_2, Q5TCQ9, sequence (Q5TCQ9 398-503): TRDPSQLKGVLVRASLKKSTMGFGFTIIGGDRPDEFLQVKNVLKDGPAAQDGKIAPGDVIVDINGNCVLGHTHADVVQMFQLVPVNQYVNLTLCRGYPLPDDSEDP

SDSSGQEYSL [KCTD3, Q9Y597]
pKd (DLG4_2, P78352; [1]): below the threshold
pKd (DLG4_3, P78352; [1]): below the threshold
pKd (DLG5_1, Q8TDM6; [1]): below the threshold
pKd (FRMPD2_1, Q68DX3; [1]): below the threshold
pKd (FRMPD2_2, Q68DX3; [1]): below the threshold
pKd (GRID2IP_1, A4D2P6; [1]): below the threshold
pKd (GRID2IP_2, A4D2P6; [1]): below the threshold
pKd (GRIP1_5, Q9Y3R0; [1]): below the threshold
pKd (IL16_1, Q14005; [1]): below the threshold
pKd (LDB3, O75112; [1]): below the threshold
pKd (LNX2_2, Q8N448; [1]): below the threshold
pKd (MAGI2_2, Q86UL8; [1]): below the threshold
pKd (MAGI2_3, Q86UL8; [1]): below the threshold
pKd (MAGI2_5, Q86UL8; [1]): below the threshold
pKd (MAGI3_2, Q5TCQ9; [1]): below the threshold
pKd (MPDZ_12, O75970; [1]): below the threshold
pKd (NHERF3_4, Q5T2W1; [1]): below the threshold
pKd (NOS1, P29475; [1]): 3.61
pKd (PARD3_3, Q8TEW0; [1]): 4.58
pKd (PDZRN3_1, Q9UPQ7; [1]): below the threshold
pKd (SCRIB_2, Q14160; [1]): below the threshold
pKd (SNTG1, Q9NSN8; [1]): below the threshold
pKd (SNTG2, Q9NY99; [1]): below the threshold
pKd (SNX27, Q96L92; [1]): below the threshold
pKd (SYNJ2BP, P57105; [1]): below the threshold
pKd (TIAM2, Q8IVF5; [1]): below the threshold
pKd (TJP1_2, Q07157; [1]): below the threshold
pKd (TX1BP3, O14907; [1]): below the threshold

ESLLLGPSNF [SHROOM4, Q9ULL8]
pKd (DLG4_2, P78352; [1]): below the threshold
pKd (DLG4_3, P78352; [1]): below the threshold
pKd (DLG5_1, Q8TDM6; [1]): below the threshold
pKd (FRMPD2_1, Q68DX3; [1]): below the threshold
pKd (FRMPD2_2, Q68DX3; [1]): below the threshold
pKd (GRID2IP_1, A4D2P6; [1]): below the threshold
pKd (GRID2IP_2, A4D2P6; [1]): below the threshold
pKd (GRIP1_5, Q9Y3R0; [1]): below the threshold
pKd (IL16_1, Q14005; [1]): below the threshold
pKd (LDB3, O75112; [1]): below the threshold
pKd (LNX2_2, Q8N448; [1]): below the threshold
pKd (MAGI2_2, Q86UL8; [1]): below the threshold
pKd (MAGI2_3, Q86UL8; [1]): below the threshold
pKd (MAGI2_5, Q86UL8; [1]): below the threshold
pKd (MAGI3_2, Q5TCQ9; [1]): below the threshold
pKd (MPDZ_12, O75970; [1]): below the threshold
pKd (NHERF3_4, Q5T2W1; [1]): below the threshold
pKd (NOS1, P29475; [1]): below the threshold
pKd (PARD3_3, Q8TEW0; [1]): below the threshold
pKd (PDZRN3_1, Q9UPQ7; [1]): below the threshold
pKd (SCRIB_2, Q14160; [1]): below the threshold
pKd (SNTG1, Q9NSN8; [1]): below the threshold
pKd (SNTG2, Q9NY99; [1]): below the threshold
pKd (SNX27, Q96L92; [1]): below the threshold
pKd (SYNJ2BP, P57105; [1]): below the threshold
pKd (TIAM2, Q8IVF5; [1]): 3.49
pKd (TJP1_2, Q07157; [1]): below the threshold
pKd (TX1BP3, O14907; [1]): below the threshold

QRQARSETLV [HPV59-E6, Q81964]
pKd (DLG4_2, P78352; [2]): 5.45
pKd (DLG4_3, P78352; [2]): 4.21
pKd (DLG5_1, Q8TDM6; [2]): below the threshold
pKd (FRMPD2_1, Q68DX3; [2]): below the threshold
pKd (FRMPD2_2, Q68DX3; [2]): 3.95
pKd (GRID2IP_1, A4D2P6; [2]): below the threshold
pKd (GRID2IP_2, A4D2P6; [2]): 3.64
pKd (GRIP1_5, Q9Y3R0; [2]): below the threshold
pKd (IL16_1, Q14005; [2]): below the threshold
pKd (LDB3, O75112; [2]): below the threshold
pKd (LNX2_2, Q8N448; [2]): 5.04
pKd (MAGI2_2, Q86UL8; [2]): 6.07
pKd (MAGI2_3, Q86UL8; [2]): 4.73
pKd (MAGI2_5, Q86UL8; [2]): 5.02
pKd (MAGI3_2, Q5TCQ9; [2]): 6.07
pKd (MPDZ_12, O75970; [2]): below the threshold
pKd (NHERF3_4, Q5T2W1; [2]): below the threshold
pKd (NOS1, P29475; [2]): 4.26
pKd (PARD3_3, Q8TEW0; [2]): below the threshold
pKd (PDZRN3_1, Q9UPQ7; [2]): 4.22
pKd (SCRIB_2, Q14160; [2]): 4.18
pKd (SNTG1, Q9NSN8; [2]): 4.17
pKd (SNTG2, Q9NY99; [2]): 4.05
pKd (SNX27, Q96L92; [2]): 4.64
pKd (SYNJ2BP, P57105; [2]): 4.81
pKd (TIAM2, Q8IVF5; [2]): below the threshold
pKd (TJP1_2, Q07157; [2]): below the threshold
pKd (TX1BP3, O14907; [2]): 4.05

Source: paper PMC9482650, “Quantitative fragmentomics allow affinity mapping of interactomes” (Nature Communications, 2022)
